Results published in US20140223606, “COMPOSITIONS AND METHODS COMPRISING SEQUENCES HAVING MEGANUCLEASE ACTIVITY” (PIONEER HI BRED INTERNATIONAL INC, published 2014).
Changes are numbered by the printed parent chain.

T1: MHP14+(08) (artificial)
T1 chain: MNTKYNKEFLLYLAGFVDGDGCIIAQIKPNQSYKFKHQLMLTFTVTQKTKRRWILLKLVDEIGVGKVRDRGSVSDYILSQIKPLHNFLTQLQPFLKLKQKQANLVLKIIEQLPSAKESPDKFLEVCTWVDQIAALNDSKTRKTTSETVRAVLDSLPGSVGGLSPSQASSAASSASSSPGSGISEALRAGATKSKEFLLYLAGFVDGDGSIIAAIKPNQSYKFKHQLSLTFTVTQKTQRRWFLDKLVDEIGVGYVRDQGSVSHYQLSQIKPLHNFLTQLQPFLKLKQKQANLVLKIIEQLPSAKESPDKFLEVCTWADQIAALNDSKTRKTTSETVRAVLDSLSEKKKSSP

T2: MHP14+(06) (artificial)
T2 chain: T1 chain with C22S, K50R, I54F, I81K, K121G, K244E, F281Y, A316V, I319V

T3: MHP14+(12) (artificial)
T3 chain: T1 chain with F16I, C22S, I54F, L56D, N103V, I132V, D153M, K244E, F281Y, A316V

T4: MHP14+(14) (artificial)
T4 chain: T1 chain with C22S, K50R, I54F, L56D, G258S, K308G

T5: ZM6.22v2(J2) (artificial)
T5 chain: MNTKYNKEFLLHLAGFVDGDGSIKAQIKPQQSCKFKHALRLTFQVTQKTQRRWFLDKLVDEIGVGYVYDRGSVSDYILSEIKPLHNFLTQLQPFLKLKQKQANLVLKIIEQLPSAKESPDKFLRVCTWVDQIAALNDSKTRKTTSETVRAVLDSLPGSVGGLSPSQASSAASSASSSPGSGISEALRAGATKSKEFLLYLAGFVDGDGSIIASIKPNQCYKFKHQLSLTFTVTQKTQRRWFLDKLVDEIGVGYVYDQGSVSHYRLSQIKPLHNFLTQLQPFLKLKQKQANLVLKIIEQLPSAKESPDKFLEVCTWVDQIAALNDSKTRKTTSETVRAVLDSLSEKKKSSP

B1: MHP14 recognition site (dsDNA)
DNA 1: CAAACAGATTCACGTCAGATTT
DNA 2: AAATCTGACGTGAATCTGTTTG
B2: ZM6.22v2 recognition site (dsDNA)
DNA 1: ATTGCTCTCTCACATACTTTTA
DNA 2: TAAAAGTATGTGAGAGAGCAAT

Tests used:
MHP14+(08) = biological target: T1, MHP14+(08); assay: cell_activity; maize; yeast 37 C: 4; conditions: tags: SV40 NLS
MHP14+(06) = biological target: T2, MHP14+(06); assay: cell_activity; maize; yeast 37 C: 4; conditions: tags: SV40 NLS
MHP14+(12) = biological target: T3, MHP14+(12); assay: cell_activity; maize; yeast 37 C: 4; conditions: tags: SV40 NLS
MHP14+(14) = biological target: T4, MHP14+(14); assay: cell_activity; maize; yeast 37 C: 4; conditions: tags: SV40 NLS
ZM6.22v2(J2) = biological target: T5, ZM6.22v2(J2); assay: cell_activity; yeast 37 C; 30 C: 0; conditions: tags: NLS, 6xHis
Method: A 3 mL culture of selective media (MP Biomedical) was inoculated with a single colony of the yeast screening strain and grown at 30° C. overnight. On the following day, a 50 ml YPD culture (MP Biomedical) was started with 2 ml of the overnight culture and grown at 30° C. overnight. On the following day, the cells were harvested by centrifugation at 4000 rpm. The cells were resuspended in 100 ml ice cold water and centrifuged again. The cells were then washed in 1.2 M sorbitol, followed by treatment with 2 ml of 10 mM Tris pH 8.0, 1 mM EDTA, 100 mM Lithium acetate, 10 mM DTT, 0.6M sorbitol for 30 minutes at 30° C. with shaking. The cells were recovered by centrifugation, washed in 40 ml 1.2M sorbitol and finally resuspended in 250 microliters of 1.2M sorbitol. 50 microliter aliquots were transferred to test tubes on ice. Up to 5 microliters of DNA (100-500 nanograms) were added. The suspension was transferred to a 0.2 cm electroporation cuvette, on ice. Electroporation was performed with a pulse charge at 1.5 kV, 200 ohms, 25 microF (pulse time of 5 milliseconds). 1 mL YPD media (MP Biomedical) was added and the cells were allowed to recover at 30° C. for 1-2 hr. The cells were centrifuged, resuspended in 100 uL 1M sorbitol and plated on selective media lacking leucine and containing 2% galactose. The resulting yeast colonies were incubated at various temperatures ranging from 22 to 37 degrees Celsius for 7-10 days. I-CreI and meganucleases derived from it have maximal activity at or above 37 degrees Celsius. Screening was performed at a range of temperatures from 22 to 37 degrees in order to observe increases in activity at lower temperatures which are relevant to certain biological systems (eg. plant cells, plant cell cultures, etc). At that time the red/white sectoring phenotype, indicative of meganuclease activity was observed. Colonies with increased white sectoring over the parental meganuclease (indicating colonies expressing a meganuclease with increased meganuclease activity), also referred to as “hits” and sometimes completely white, were isolated for further analysis.
A total of 13 ZM6.22v2 variants with increased activity were confirmed in the yeast system (as described in Example 6). Increased activity was observed across a range of temperatures: 28 degrees Celsius, 30 degrees Celsius and 37 degrees Celsius, as shown in Table 16.

| Binder | activity (MHP14+(08)) | activity (MHP14+(06)) | activity (MHP14+(12)) | activity (MHP14+(14)) | activity (ZM6.22v2(J2)) |
| --- | --- | --- | --- | --- | --- |
| B1 | 25 % target site mutation rate | 7 % target site mutation rate | 47 % target site mutation rate | 39 % target site mutation rate | – |
| B2 | – | – | – | – | 2 score 0-4 |
